B1: Formin-binding protein 4, residues 200 to 261; numbered along this chain, Q8N3X1 (parent)
chain: SGWQYDTQCSLAGVGIEMGDWQEVWDENTGCYYYWNTQTNEVTWELPQYLATQVQGLQHYQP
B2: Myocardin, residues 363 to 406; numbered along this chain, Q8IZQ8 (parent)
chain: KPGPLPPNLDDLKVSELRQQLRIRGLPVSGTKTALMDRLRPFQD

Variants of: B1
Experiment: abundance fitness (aPCA) (normalised: wild type 0, dead -1); higher = more abundant; growth selection in yeast, the domain comes from the species named
Conditions: Homo sapiens

Abundance fitness, by site and new letter:
G2: Y 0.422 | L -0.022 | H 0.607 | S 0.222 | N 0.405 | M 0.19 | D 0.196 | I 0.273 | F 0.071 | T 0.328 | Q 0.052 | R -0.097 | W -0.25 | C -0.276
D6: E -0.135 | R -0.14 | Q -0.785 | V -0.829 | H -0.282 | A -0.354 | T -0.139 | S -0.35 | K 0.009 | W -0.555 | G -0.17 | F -0.492 | I -0.228 | C -0.342 | Y -0.644 | P -0.706
T7: K -0.036 | F -0.461 | L -0.452 | S 0.002 | A 0.017 | R -0.061 | P -0.309 | D -0.314 | W -0.493 | Y -0.181 | E -0.392 | V -0.262 | N 0.124 | Q -0.012 | I -0.453 | C 0.051 | M -0.37 | H -0.318 | G -0.06
C9: Q 0.017 | T 0.22 | Y -0.105 | W -0.377 | D 0.052 | L 0.049 | K 0.254 | P -0.365 | V 0.205 | H -0.139 | G -0.081 | I -0.171 | S 0.065 | A 0.076
Y5: I -0.436 | R -0.181 | C -0.592 | W -0.207 | V -0.534 | D -0.525 | Q -0.357 | G -0.36 | F -0.115 | H -0.052 | M 0.06 | T -0.271 | S -0.323 | A -0.416 | L -0.425 | E -0.218 | P -0.506
Q4: W -0.241 | S -0.023 | L -0.385 | F 0.146 | K 0.358 | A -0.447 | D 0.182 | Y -0.176 | T 0.288 | P -0.635 | R 0.106 | N 0.318 | H 0.126 | G -0.207 | I 0.232 | V 0.147 | C -0.051 | M 0.165 | E -0.037
Q8: E 0.123 | T 0.187 | H 0.041 | K 0.239 | L -0.369 | R 0.046 | V -0.191 | Y -0.267 | P -0.568 | I -0.445 | W -0.421 | F -0.233 | C -0.188 | A 0.29 | G 0.105 | M -0.097 | S 0.164 | D -0.515 | N -0.02
W3: M 0.046 | V 0.054 | I -0.217 | P -0.158 | T 0.168 | D -0.019 | A 0.002 | H -0.296 | G -0.275 | R -0.202 | Q 0.157 | E -0.376 | S 0.127 | L -0.003 | Y 0.012 | F 0.156 | K 0.138 | C -0.097
S1: G 0.116 | H -0.921 | D 0.085 | Y -0.631 | L -0.501 | P -0.709 | N -0.093 | V -0.052 | F -0.457 | C -0.068 | I -0.222 | R -0.236 | E 0.066 | W -0.075 | A 0.057 | K 0.293 | M 0.503 | T 0.046 | Q -0.673
S10: A -0.266 | H -0.644 | K -0.457 | M -0.521 | F -0.776 | D -0.472 | G -0.148 | C -0.332 | I -0.476 | L -0.651 | N -0.533

Variants of: B2
Experiment: as above
Conditions: Homo sapiens

Abundance fitness of substitutions, site by site:
D44: V 0.038

Reference: the Human Domainome abundance scans (Beltran et al. 2025)
